Source: US20240294594A1 (CYTUNE PHARMA, published 2024)
Where a chain is given by its changes, count along the chain named. Numbers in names are those of the source. Each block holds one binder with its values, some of them ahead of it.

Assays:
FcγRIIIa F158 [1] = target: T1, FcγRIIIa F158 (human, UniProt P08637 17-208, limits assumed); test: SPR (Biacore 8K), ratio of 1/Kd values
T1 construct: also called hFcγRIIIaF158; CD16a F158
Description: (§1) SPR experiments were performed on a Biacore 8K (Cytiva, Chicago, IL, USA), using CM5 sensor chips (Cytiva) with an immobilization using THE His tag antibodies (Genscript). FcγRIIIa V158, FcγRIIIa F158 or FcγRIIb protein were used for capture with a contact time of 30 sec at a flow rate of […] in a 1×HBS-EP+ running buffer. Association/dissociation rates were measured for each tested immunocytokine at a flow rate of 30 μl/min with concentration serial dilution in a suitable range with an association time/dissociation time of 300 s/300 s except for constructs with DLE and DE with and without afucosylation, where association/dissociation time of 120 s/1200 s was applied.

FcγRIIIa V158 [2] = target: T2, FcγRIIIa V158 (human, UniProt P08637 17-208, limits assumed); test: SPR (Biacore 8K), ratio of 1/Kd values
T2 construct: also called hFcγRIIIaV158; CD16a V158
Description: as §1

FcγRIIIa F158 [3] = target: T1, FcγRIIIa F158; test: SPR (Biacore 8K), receptor captured via anti-His antibody
Description: as §1

FcγRIIb = target: T3, FcγRIIb (UniProt P31994 46-217, limits assumed); test: as above
T3 construct: also called FcgRIIb
T3 sequence (looked up): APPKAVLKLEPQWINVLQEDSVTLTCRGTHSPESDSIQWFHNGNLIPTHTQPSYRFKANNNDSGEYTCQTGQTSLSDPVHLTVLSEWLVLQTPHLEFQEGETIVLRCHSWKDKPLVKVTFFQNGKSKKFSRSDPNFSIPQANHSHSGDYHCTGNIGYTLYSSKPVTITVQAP
Description: as §1

FcγRIIIa V158 [4] = target: T2, FcγRIIIa V158; test: as above
Description: as §1

[5] = target: PD-1 (on PD-1 Effector Cells of the Promega PD-1/PD-L1 Blockade Bioassay) (UniProt Q15116 25-288, limits assumed); test: cell-based or functional assay
IL-2/IL-15Rβγ (on cells) [6] = target: T4, IL-2/IL-15Rβγ (on cells) (UniProt P14784 27-551; P31785 23-369, limits assumed); test: cell-based or functional assay
T4 sequence (looked up) 1: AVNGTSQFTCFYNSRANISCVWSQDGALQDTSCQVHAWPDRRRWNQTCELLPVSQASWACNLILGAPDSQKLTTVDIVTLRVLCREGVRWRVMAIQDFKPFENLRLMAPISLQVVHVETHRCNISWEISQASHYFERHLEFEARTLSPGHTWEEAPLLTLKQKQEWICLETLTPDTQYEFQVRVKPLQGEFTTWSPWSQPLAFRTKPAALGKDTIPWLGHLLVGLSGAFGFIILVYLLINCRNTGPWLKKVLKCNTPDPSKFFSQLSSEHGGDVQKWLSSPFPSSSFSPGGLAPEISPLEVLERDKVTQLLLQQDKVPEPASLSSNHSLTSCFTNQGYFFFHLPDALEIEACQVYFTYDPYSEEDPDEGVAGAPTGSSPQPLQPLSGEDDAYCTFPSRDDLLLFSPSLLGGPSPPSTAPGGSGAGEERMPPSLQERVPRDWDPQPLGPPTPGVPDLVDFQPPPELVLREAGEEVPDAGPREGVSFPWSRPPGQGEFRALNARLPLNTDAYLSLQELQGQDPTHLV
T4 sequence (looked up) 2: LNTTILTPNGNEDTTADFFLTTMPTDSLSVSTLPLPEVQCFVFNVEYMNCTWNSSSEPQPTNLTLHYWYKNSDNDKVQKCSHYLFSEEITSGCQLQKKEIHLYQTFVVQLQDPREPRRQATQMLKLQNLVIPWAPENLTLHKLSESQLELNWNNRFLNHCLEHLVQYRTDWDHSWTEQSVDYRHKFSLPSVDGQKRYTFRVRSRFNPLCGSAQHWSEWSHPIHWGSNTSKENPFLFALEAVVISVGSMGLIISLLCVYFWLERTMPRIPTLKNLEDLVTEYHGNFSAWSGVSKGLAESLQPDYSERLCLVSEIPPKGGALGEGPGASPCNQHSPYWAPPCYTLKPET

IL-2/IL-15Rβγ (on cells) [7] = target: T4, IL-2/IL-15Rβγ (on cells); test: cell-based or functional assay; remark: listed apart in the source

T1 sequence (P08637 17-208 limits assumed): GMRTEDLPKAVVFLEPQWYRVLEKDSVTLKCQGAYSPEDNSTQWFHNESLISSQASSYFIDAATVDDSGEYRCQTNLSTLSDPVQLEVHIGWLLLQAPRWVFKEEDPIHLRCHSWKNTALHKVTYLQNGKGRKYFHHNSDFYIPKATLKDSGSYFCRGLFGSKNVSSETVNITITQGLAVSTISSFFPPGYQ
T2 sequence (P08637 17-208 F176V limits assumed): as the sequence (P08637 17-208 limits assumed) above, with F160V counted along it
PD-1 (on PD-1 Effector Cells of the Promega PD-1/PD-L1 Blockade Bioassay), sequence (Q15116 25-288 limits assumed): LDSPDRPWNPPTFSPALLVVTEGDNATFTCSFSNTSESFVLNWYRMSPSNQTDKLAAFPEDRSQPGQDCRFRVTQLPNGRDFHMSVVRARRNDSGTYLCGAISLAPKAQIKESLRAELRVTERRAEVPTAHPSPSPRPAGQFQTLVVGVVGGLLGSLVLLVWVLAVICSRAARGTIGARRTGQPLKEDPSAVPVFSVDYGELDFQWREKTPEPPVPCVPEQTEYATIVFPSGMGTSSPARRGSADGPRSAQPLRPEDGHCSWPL

A/I (F158), affinity towards FcγRIIIa over affinity towards FcγRIIb (FcγRIIIa F158 [1]): 244 ratio
A/I (V158), affinity towards FcγRIIIa over affinity towards FcγRIIb (FcγRIIIa V158 [2]): 691 ratio
Kd (FcγRIIIa F158 [3]): 101 nM
Kd (FcγRIIb): 24600 nM
Kd (FcγRIIIa V158 [4]): 35.6 nM
B1: hCl1a AAA-RLI DANA (other)
heavy 1: QVQLVQSGAEVKKPGASVKVSCKASGYTFTDYAMHWVRQAPGQRLEWMGWINTYTGKPTYAQKFQGRVTITRDTSASTAYMELSSLRSEDTAVYYCARAVFYGYTMDAWGQGTLVTVSSASTKGPSVFPLAPSSKSTSGGTAALGCLVKDYFPEPVTVSWNSGALTSGVHTFPAVLQSSGLYSLSSVVTVPSSSLGTQTYICNVNHKPSNTKVDKKVEPKSCDKTHTCPPCPAPELLGGPSVFLFPPKPKDTLMISRTPEVTCVVVDVSHEDPEVKFNWYVDGVEVHNAKTKPREEQYNATYRVVSVLTVLHQDWLNGKEYKCKVSNKALPAPIAATISKAKGQPREPQVYTLPPSRDELTKNQVSLWCLVKGFYPSDIAVEWESNGQPENNYKTTPPVLDSDGSFFLYSKLTVDKSRWQQGNVFSCSVMHEALHNHYTQKSLSLSPGITCPPPMSVEHADIWVKSYSLYSRERYICNSGFKRKAGTSSLTECVLNKATNVAHWTTPSLKCIRDPALVHQRPAPPSGGSGGGGSGGGSGGGGSGGNWVNVISDLKKIEDLIQSMHIDATLYTESDVHPSCKVTAMKCFLLELQVISLESGDASIHATVEALIILANNSLSSNAQVTESGCKECEELEEKNIKEFLQSFVHIVQMFINTS
heavy 2: QVQLVQSGAEVKKPGASVKVSCKASGYTFTDYAMHWVRQAPGQRLEWMGWINTYTGKPTYAQKFQGRVTITRDTSASTAYMELSSLRSEDTAVYYCARAVFYGYTMDAWGQGTLVTVSSASTKGPSVFPLAPSSKSTSGGTAALGCLVKDYFPEPVTVSWNSGALTSGVHTFPAVLQSSGLYSLSSVVTVPSSSLGTQTYICNVNHKPSNTKVDKKVEPKSCDKTHTCPPCPAPELLGGPSVFLFPPKPKDTLMISRTPEVTCVVVDVSHEDPEVKFNWYVDGVEVHNAKTKPREEQYNATYRVVSVLTVLHQDWLNGKEYKCKVSNKALPAPIAATISKAKGQPREPQVYTLPPSRDELTKNQVSLSCAVKGFYPSDIAVEWESNGQPENNYKTTPPVLDSDGSFFLVSKLTVDKSRWQQGNVFSCSVMHEALHNHYTQKSLSLSPG
light: DIQMTQSPSSLSASVGDRVTITCRASEDIYSNLAWYQQKPGKAPKLLIFSVKRLQDGVPSRFSGSGSGTDFTLTISSLQPEDFATYYCLQGSNFPLTFGQGTKVEIKRTVAAPSVFIFPPSDEQLKSGTASVVCLLNNFYPREAKVQWKVDNALQSGNSQESVTEQDSKDSTYSLSSTLTLSKADYEKHKVYACEVTHQGLSSPVTKSFNRGEC
notes: Immunocytokine; also called SOT202-AAA-DANA

A/I (F158), affinity towards FcγRIIIa over affinity towards FcγRIIb (FcγRIIIa F158 [1]): 228 ratio
A/I (V158), affinity towards FcγRIIIa over affinity towards FcγRIIb (FcγRIIIa V158 [2]): 464 ratio
Kd (FcγRIIIa F158 [3]): 11.6 nM
Kd (FcγRIIb): 2650 nM
Kd (FcγRIIIa V158 [4]): 5.71 nM
B2: hCl1a DLE-RLI DANA (other)
heavy 1: B1 heavy 1 with S241D, A300S, A332L, I334E, A335E, A336K
heavy 2: B1 heavy 2 with S241D, A300S, A332L, I334E, A335E, A336K
light: B1 light
notes: Immunocytokine; also called SOT202-DLE-DANA

A/I (F158), affinity towards FcγRIIIa over affinity towards FcγRIIb (FcγRIIIa F158 [1]): 9370 ratio
A/I (V158), affinity towards FcγRIIIa over affinity towards FcγRIIb (FcγRIIIa V158 [2]): 13700 ratio
Kd (FcγRIIIa F158 [3]): 0.237 nM
Kd (FcγRIIb): 2220 nM
Kd (FcγRIIIa V158 [4]): 0.162 nM
B3: hCl1a DLE-RLI DANA afuc (other)
heavy 1: B1 heavy 1 with S241D, A300S, A332L, I334E, A335E, A336K
heavy 2: B1 heavy 2 with S241D, A300S, A332L, I334E, A335E, A336K
light: B1 light
modifications: afucosylated Fc N-glycan
notes: Afucosylated form of hCl1a DLE-RLI DANA

A/I (F158), affinity towards FcγRIIIa over affinity towards FcγRIIb (FcγRIIIa F158 [1]): 380 ratio
A/I (V158), affinity towards FcγRIIIa over affinity towards FcγRIIb (FcγRIIIa V158 [2]): 1010 ratio
Kd (FcγRIIIa F158 [3]): 46.1 nM
Kd (FcγRIIb): 17500 nM
Kd (FcγRIIIa V158 [4]): 17.3 nM
B4: hCl1a AAA-RLI DANA afuc (other)
heavy 1: B1 heavy 1
heavy 2: B1 heavy 2
light: B1 light
modifications: afucosylated Fc N-glycan

Continued, binder first:

B5: PEM LE/YTE-RLI NA x1 (other)
heavy 1: QVQLVQSGVEVKKPGASVKVSCKASGYTFTNYYMYWVRQAPGQGLEWMGGINPSNGGTNFNEKFKNRVTLTTDSSTTTAYMELKSLQFDDTAVYYCARRDYRFDMGFDYWGQGTTVTVSSASTKGPSVFPLAPCSRSTSESTAALGCLVKDYFPEPVTVSWNSGALTSGVHTFPAVLQSSGLYSLSSVVTVPSSSLGTKTYTCNVDHKPSNTKVDKRVESKYGPPCPPCPAPEFEGGPSVFLFPPKPKDTLYITREPEVTCVVVDVSQEDPEVQFNWYVDGVEVHNAKTKPREEQFNSTYRVVSVLTVLHQDWLNGKEYKCKVSNKGLPSSIEKTISKAKGQPREPQVYTLPPSQEEMTKNQVSLWCLVKGFYPSDIAVEWESNGQPENNYKTTPPVLDSDGSFFLYSRLTVDKSRWQEGNVFSCSVMHEALHNHYTQKSLSLSLGITCPPPMSVEHADIWVKSYSLYSRERYICNSGFKRKAGTSSLTECVLNKATNVAHWTTPSLKCIRDPALVHQRPAPPSGGSGGGGSGGGSGGGGSGGNWVNVISDLKKIEDLIQSMHIDATLYTESDVHPSCKVTAMKCFLLELQVISLESGDASIHDTVEALIILANNSLSSNAQVTESGCKECEELEEKNIKEFLQSFVHIVQMFINTS
heavy 2: QVQLVQSGVEVKKPGASVKVSCKASGYTFTNYYMYWVRQAPGQGLEWMGGINPSNGGTNFNEKFKNRVTLTTDSSTTTAYMELKSLQFDDTAVYYCARRDYRFDMGFDYWGQGTTVTVSSASTKGPSVFPLAPCSRSTSESTAALGCLVKDYFPEPVTVSWNSGALTSGVHTFPAVLQSSGLYSLSSVVTVPSSSLGTKTYTCNVDHKPSNTKVDKRVESKYGPPCPPCPAPEFEGGPSVFLFPPKPKDTLYITREPEVTCVVVDVSQEDPEVQFNWYVDGVEVHNAKTKPREEQFNSTYRVVSVLTVLHQDWLNGKEYKCKVSNKGLPSSIEKTISKAKGQPREPQVYTLPPSQEEMTKNQVSLSCAVKGFYPSDIAVEWESNGQPENNYKTTPPVLDSDGSFFLVSRLTVDKSRWQEGNVFSCSVMHEALHNHYTQKSLSLSLG
light: EIVLTQSPATLSLSPGERATLSCRASKGVSTSGYSYLHWYQQKPGQAPRLLIYLASYLESGVPARFSGSGSGTDFTLTISSLEPEDFAVYYCQHSRDLPLTFGGGTKVEIKRTVAAPSVFIFPPSDEQLKSGTASVVCLLNNFYPREAKVQWKVDNALQSGNSQESVTEQDSKDSTYSLSSTLTLSKADYEKHKVYACEVTHQGLSSPVTKSFNRGEC
EC50 [pM], PD-1/PD-L1 Blockade Bioassay (Promega) [5]: 1440 pM

B6: RLI2 mutein D30N/E64Q/N65D (NQD) of Table 13 (ligand)
chain: ITCPPPMSVEHADIWVKSYSLYSRERYICNSGFKRKAGTSSLTECVLNKATNVAHWTTPSLKCIRDPALVHQRPAPPSGGSGGGGSGGGSGGGGSGGNWVNVISDLKKIEDLIQSMHIDATLYTESNVHPSCKVTAMKCFLLELQVISLESGDASIHDTVQDLIILANNSLSSNGNVTESGCKECEELEEKNIKEFLQSFVHIVQMFINTS
Potency in vitro (kit225) (IL-2/IL-15Rβγ (on cells) [6]): -15700 x (fold against RLI2 wt)

B7: RLI DANAQD (ligand)
chain: B6 chain with N127D, D158A, Q161E, D162A, Q198D
EC50 kit225 cells [pM] (IL-2/IL-15Rβγ (on cells) [7]): 106000 pM
